Measurements taken from article PMC3496659, “Analysis of the sulfur-regulated control of the cystathionine γ-lyase gene of Neurospora crassa”.

Molecular target: T1, CYS3 transcriptional activator (Neurospora crassa, UniProt P22697 1-236)
T1 sequence: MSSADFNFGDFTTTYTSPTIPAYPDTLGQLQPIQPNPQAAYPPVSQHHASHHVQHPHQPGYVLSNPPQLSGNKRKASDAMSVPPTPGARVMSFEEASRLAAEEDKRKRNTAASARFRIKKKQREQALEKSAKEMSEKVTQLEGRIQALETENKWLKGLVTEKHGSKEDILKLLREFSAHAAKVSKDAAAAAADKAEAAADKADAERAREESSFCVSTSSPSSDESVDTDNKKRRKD
Assay: EMSA; Binding buffer not given (refs 14,20); 4% PAGE in 50 mM Tris-80 mM glycine-2 mM EDTA pH 8.5, 20 mA, 4 C
Details: protein: recombinant; chain copies: 2; label: 32P (T4 PNK); blunt

B1: cys-16+ Site 3 (dsDNA)
DNA 1: AACCTGAATTGCGCCATAGCCAAA
DNA 2: TTTGGCTATGGCGCAATTCAGGTT
**Q.** Does B1 bind?
**A.** binds
